Holding throughout (assay): Selectivity ELISA of humanized antibodies for human Eph receptor
What all share (assay type): binding
Common to all, as to details: coated protein 1 nM

One assay deals with T1, human EphA7 (Homo sapiens, UniProt Q15375).
T1 construct: a protein of the extracellular region of each human Eph receptor fused with the SEAP protein and the His tag; made in house; host or cells: Expi293F cells (culture supernatant)
T1 sequence (Q15375 28-555 limits assumed): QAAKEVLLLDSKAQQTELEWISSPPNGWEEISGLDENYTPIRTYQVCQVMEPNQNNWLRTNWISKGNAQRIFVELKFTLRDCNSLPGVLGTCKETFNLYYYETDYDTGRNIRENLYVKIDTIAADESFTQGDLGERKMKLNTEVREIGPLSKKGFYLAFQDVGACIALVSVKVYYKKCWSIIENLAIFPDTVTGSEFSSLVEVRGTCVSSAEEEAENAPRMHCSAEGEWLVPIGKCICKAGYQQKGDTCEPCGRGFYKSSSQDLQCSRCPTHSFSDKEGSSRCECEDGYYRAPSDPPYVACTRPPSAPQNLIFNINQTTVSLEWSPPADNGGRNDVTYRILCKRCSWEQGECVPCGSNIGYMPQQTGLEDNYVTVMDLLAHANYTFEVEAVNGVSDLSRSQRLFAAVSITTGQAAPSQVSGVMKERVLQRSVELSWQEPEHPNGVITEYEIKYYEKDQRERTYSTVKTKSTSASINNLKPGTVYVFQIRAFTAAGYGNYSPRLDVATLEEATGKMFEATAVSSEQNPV
The gist of the method: (§1)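 His-tagged SEAP fusions of each human Eph receptor extracellular region, from Expi293F supernatants, were captured at 1 nM on anti-His-coated wells. Humanized antibody was bound 1 h at room temperature, then detected with HRP […] IgG. TMB development was acid-stopped and read at 450 nm.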

Another assay deals with T2, human EphA3 (Homo sapiens, UniProt P29320).
T2 construct: a protein of the extracellular region of each human Eph receptor fused with the SEAP protein and the His tag; made in house; host or cells: Expi293F cells (culture supernatant)
T2 sequence (P29320 21-541 limits assumed): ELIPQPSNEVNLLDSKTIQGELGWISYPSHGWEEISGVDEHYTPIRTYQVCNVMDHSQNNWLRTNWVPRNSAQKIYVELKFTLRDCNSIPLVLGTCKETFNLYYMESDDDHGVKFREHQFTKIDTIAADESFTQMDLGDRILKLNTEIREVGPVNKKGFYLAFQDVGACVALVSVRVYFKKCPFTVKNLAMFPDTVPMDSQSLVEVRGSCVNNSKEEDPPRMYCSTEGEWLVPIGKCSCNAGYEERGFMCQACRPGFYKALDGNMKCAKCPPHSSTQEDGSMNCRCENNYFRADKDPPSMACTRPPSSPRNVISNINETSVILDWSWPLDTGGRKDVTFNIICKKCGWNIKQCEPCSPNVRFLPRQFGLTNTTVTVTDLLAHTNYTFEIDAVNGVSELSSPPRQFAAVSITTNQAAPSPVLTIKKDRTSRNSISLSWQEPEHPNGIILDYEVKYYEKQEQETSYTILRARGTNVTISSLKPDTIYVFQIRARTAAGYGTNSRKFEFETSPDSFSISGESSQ
The gist of the method:
as §1

For a further assay, the target named is T3, human EphA8 (Homo sapiens, UniProt P29322).
T3 construct: a protein of the extracellular region of each human Eph receptor fused with the SEAP protein and the His tag; made in house; host or cells: Expi293F cells (culture supernatant)
T3 sequence (P29322 28-542 limits assumed): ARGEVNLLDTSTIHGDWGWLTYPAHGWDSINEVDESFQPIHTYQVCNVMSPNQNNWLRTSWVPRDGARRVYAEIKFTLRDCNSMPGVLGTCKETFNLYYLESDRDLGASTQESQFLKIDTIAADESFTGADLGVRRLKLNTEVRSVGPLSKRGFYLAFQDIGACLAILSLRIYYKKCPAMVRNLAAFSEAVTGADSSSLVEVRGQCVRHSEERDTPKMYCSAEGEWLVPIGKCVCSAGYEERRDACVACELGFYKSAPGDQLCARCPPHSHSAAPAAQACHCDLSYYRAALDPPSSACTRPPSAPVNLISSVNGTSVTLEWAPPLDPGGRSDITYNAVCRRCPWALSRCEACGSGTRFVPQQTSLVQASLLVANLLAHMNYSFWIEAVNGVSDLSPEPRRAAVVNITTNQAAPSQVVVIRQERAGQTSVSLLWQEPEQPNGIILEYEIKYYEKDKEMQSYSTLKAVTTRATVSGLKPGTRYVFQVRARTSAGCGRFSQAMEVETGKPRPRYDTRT
In outline:
as §1

B1: 76 (antibody, V domains shown)
VH: QVQLVQSGSELKKPGASVKVSCKASGYTFTDYSMHWVRQAPGQGLKWMGWINTETGEPTYAQGFTGRFVFSLDTSVSTAYLQISSLKAEDTAVYYCARIPLYYYGSRYWYFDVWGQGTTVTVSS
VL: DIQMTQSPSSLSASVGDRVTITCRASENIYRNLAWYQQKPGKAPKLLVYAATNLADGVPSRFSGSGSGTDYTLTISSLQPEDFATYYCQHFWGTPWTFGQGTKVEIK
modifications: synthetic humanized antibody heavy chain variable region sequence; synthetic humanized antibody light chain variable region sequence
Consider B1, for which the “hEphA7-SEAP-: absorbance at 450 nm, percentage with respect to hEphA4-SEAP-His as 100%” value with human EphA7 stood at 4.8%. The “hEphA3-SEAP-: absorbance at 450 nm, percentage with respect to hEphA4-SEAP-His as 100%” value in the assay with human EphA3 stood at 4.9%. Moreover, the “hEphA8-SEAP-: absorbance at 450 nm, percentage with respect to hEphA4-SEAP-His as 100%” value with human EphA8 is given as 5.5%.

B2: 136 (antibody, V domains shown)
VH: QVQLVQSGSELKKPGASVKVSCKASGYTFTDYSMHWVRQAPGQGLKWMGWINTETGEPTYADDFKGRFVFSLDTSVSTAYLQISSLKAEDTAVYYCARIPLYYYGSRYWYFDVWGQGTTVTVSS
VL: EIVMTQSPATLSVSPGERATLSCRASENIYRNLAWYQQKPGQSPRLLIYAATNLADGIPARFSGSGSGTEYTLTISSLQSEDFAVYYCQHFWGTPWTFGQGTKVEIK
modifications: synthetic humanized antibody heavy chain variable region sequence; synthetic humanized antibody light chain variable region sequence
Turning to B2, the “hEphA7-SEAP-: absorbance at 450 nm, percentage with respect to hEphA4-SEAP-His as 100%” value with human EphA7 is given as 5.4%. Moreover, the “hEphA3-SEAP-: absorbance at 450 nm, percentage with respect to hEphA4-SEAP-His as 100%” value in the assay with human EphA3 amounted to 5.2%. For the same molecule, in the assay with human EphA8, the “hEphA8-SEAP-: absorbance at 450 nm, percentage with respect to hEphA4-SEAP-His as 100%” value amounted to 5.4%.

B3: 67 (antibody, V domains shown)
VH: QIQLVQSGSELKKPGASVKVSCKASGYTFTDYSMHWVRQAPGQGLKWMGWINTETGEPTYAQGFTGRFVFSLDTSVSTAYLQISSLKAEDTAVYYCARIPLYYYGSRYWYFDVWGQGTTVTVSS
VL: DIQMTQSPSSLSASVGDRVTITCRASENIYRNLAWYQQKPGKAPKLLVYAATNLADGVPSRFSGSGSGTDYTLTISSLQPEDFATYYCQHFWGTPWTFGQGTKVEIK
modifications: synthetic humanized antibody heavy chain variable region sequence; synthetic humanized antibody light chain variable region sequence
For the molecule B3, the “hEphA7-SEAP-: absorbance at 450 nm, percentage with respect to hEphA4-SEAP-His as 100%” value with human EphA7 amounted to 4.7%. For the same molecule, the “hEphA3-SEAP-: absorbance at 450 nm, percentage with respect to hEphA4-SEAP-His as 100%” value in the assay with human EphA3 is given as 4.8%. Also, the “hEphA8-SEAP-: absorbance at 450 nm, percentage with respect to hEphA4-SEAP-His as 100%” value in the assay with human EphA8 is listed as 4.7%.

B4: 78 (antibody, V domains shown)
VH: QVQLVQSGSELKKPGASVKVSCKASGYTFTDYSMHWVRQAPGQGLKWMGWINTETGEPTYADDFKGRFVFSLDTSVSTAYLQISSLKAEDTAVYYCARIPLYYYGSRYWYFDVWGQGTTVTVSS
VL: DIQMTQSPSSLSASVGDRVTITCRASENIYRNLAWYQQKPGKAPKLLVYAATNLADGVPSRFSGSGSGTDYTLTISSLQPEDFATYYCQHFWGTPWTFGQGTKVEIK
modifications: synthetic humanized antibody heavy chain variable region sequence; synthetic humanized antibody light chain variable region sequence
Take B4: the “hEphA7-SEAP-: absorbance at 450 nm, percentage with respect to hEphA4-SEAP-His as 100%” value with human EphA7 is 5.0%. For the same molecule, the “hEphA3-SEAP-: absorbance at 450 nm, percentage with respect to hEphA4-SEAP-His as 100%” value in the assay with human EphA3 was determined as 5.1%. Besides, the “hEphA8-SEAP-: absorbance at 450 nm, percentage with respect to hEphA4-SEAP-His as 100%” value with human EphA8 came to 5.4%.

B5: 156 (antibody, V domains shown)
VH: QIQLVQSGSELKKPGASVKVSCKASGYTFTDYSMHWVRQAPGQGLKWMGWINTETGEPTYAQGFTGRFVFSLDTSVSTAYLQISSLKAEDTAVYYCARIPLYYYGSRYWYFDVWGQGTTVTVSS
VL: DIQMTQSPSSLSASVGDRVTITCRASENIYRNLAWYQQKPGKAPQLLLYAATNLADGVPSRFSGSGSGTDYTLTISSLQPEDFATYYCQHFWGTPWTFGQGTKVEIK
modifications: synthetic humanized antibody heavy chain variable region sequence; synthetic humanized antibody light chain variable region sequence
In the case of B5, in the assay with human EphA7, the “hEphA7-SEAP-: absorbance at 450 nm, percentage with respect to hEphA4-SEAP-His as 100%” value turned out to be 5.6%. Moreover, in the assay with human EphA3, the “hEphA3-SEAP-: absorbance at 450 nm, percentage with respect to hEphA4-SEAP-His as 100%” value came out at 5.7%. The “hEphA8-SEAP-: absorbance at 450 nm, percentage with respect to hEphA4-SEAP-His as 100%” value with human EphA8 amounted to 5.5%.

B6: 77 (antibody, V domains shown)
VH: QVQLVQSGSELKKPGASVKVSCKASGYTFTDYSMHWVRQAPGQGLEWMGWINTETGEPTYADDFKGRFVFSLDTSVSTAYLQISSLKAEDTAVYYCARIPLYYYGSRYWYFDVWGQGTTVTVSS
VL: DIQMTQSPSSLSASVGDRVTITCRASENIYRNLAWYQQKPGKAPKLLVYAATNLADGVPSRFSGSGSGTDYTLTISSLQPEDFATYYCQHFWGTPWTFGQGTKVEIK
modifications: synthetic humanized antibody heavy chain variable region sequence; synthetic humanized antibody light chain variable region sequence
Take B6: the “hEphA7-SEAP-: absorbance at 450 nm, percentage with respect to hEphA4-SEAP-His as 100%” value in the assay with human EphA7 came to 4.3%. In the assay with human EphA3, the “hEphA3-SEAP-: absorbance at 450 nm, percentage with respect to hEphA4-SEAP-His as 100%” value amounted to 4.5%. The “hEphA8-SEAP-: absorbance at 450 nm, percentage with respect to hEphA4-SEAP-His as 100%” value with human EphA8 came to 4.8%.

For the origin of these results see US10428140B2, “Anti-EphA4 antibody” (EISAI R&D MANAGEMENT CO., LTD., priority 2015, dated 2019).
